Columns and labels:
[1] = target: T1, human HER2 on tumor cells (human, UniProt P04626 23-1255); assay: cell-based or functional assay
[2] = target: T2, keyhole limpet haemocyanin (KLH, Sigma, H8283) (keyhole limpet, UniProt Q10583 17-3414; Q10584 20-3421, limits assumed); assay: ELISA, KLH coated at 5 ug/mL, 100 nM antibody, anti-human IgG-HRP
T2 construct: Bought preparation coated on the plate in the polyspecificity ELISA
Description: (§1) (1) Antigen coating: cardiolipin (Sigma, cat. C0563), keyhole limpet haemocyanin (KLH, Sigma, H8283), LPS (Sigma, L6529), ssDNA (Sigma, D8899), dsDNA (Sigma, D4522) and Insulin (abs42019847) were plated at 50 μg/mL, 5 μg/mL, 10 μg/mL, 1 μg/mL, 1 μg/mL, g/mL, and 50 μL per well, and incubated at 4° C. overnight;
(§2) (4) 50 μl anti-human IgG-HRP conjugate (Sigma, AP113P, 1:8000 dilution) was added to each well; the plate was incubated for 1 h at room temperature and washed 6 times with 0.05% PBST;

[3] = target: T3, recombinant tumor antigen human HER2 (ERBB2, ACRO systems, HE2-H5212) (human, UniProt P04626 23-652); assay: BLI (Octet RED96e), antibody captured on AHC anti-human Fc sensor, HER2 as analyte, 30 C, 1:1 fit
T3 construct: Bought recombinant protein
Excerpt: After the chip captures the bispecific antibodies, it was allowed to bind and dissociate with different concentrations of analytes to obtain the KD value of the interaction. The experimental parameters are as follows: Baseline1: 60s, Loading: 240s, Baseline2: 180s, Association: 240s, Dissociation: 600s, Loading Response: 1.9-2.1 (nm), High sensitivity kinetics: 2 Hz. Kinetic constants were derived based on 1:1 Langmuir binding to obtain equilibrium dissociation constants (KD).

Insulin (abs42019847) = target: T4, Insulin (abs42019847); assay: ELISA, insulin coated on the plate, 100 nM antibody, anti-human IgG-HRP
T4 construct: Coated on the plate in the polyspecificity ELISA
Description: as §1, §2

[4] = target: the molecule itself; assay: BLI self-interaction: antibody captured on AHQ anti-human Fc sensor, free sites blocked with human IgG, same antibody in solution
Description: The bispecific antibodies were diluted to 1 μM, and the proteins were coupled to the surface of the AHQ sensor chip in PBS, and the signal value was ˜0.8 nm. […] The experimental parameters are as follows: Baseline1: 60s, Loading: 180s, Loading response: 0.8 nm, Baseline2: 180s, Association: 240s, High sensitivity kinetics: 2 Hz.

[5] = target: T1, human HER2 on tumor cells; assay: cell-based or functional assay; remark: listed apart in the source

B1: HER2-CD3 bispecific antibody 501 (bispecific antibody, human IgG4 S228P, kappa, F234A L235A)
heavy: EVKLLESGGGLVQPKGSLKLSCAASGFTFNTYAMNWVRQAPGKGLEWVARIRSKYNNYATYYADSVKDRFTISRDDSQSILYLQMNNLKTEDTAMYYCVRHGNFGNSYVSWFAYWGQGTLVTVSSASTKGPSVFPLAPCSRSTSESTAALGCLVKDYFPEPVTVSWNSGALTSGVHTFPAVLQSSGLYSLSSVVTVPSSSLGTKTYTCNVDHKPSNTKVDKRVESKYGPPCPPCPAPEAAGGPSVFLFPPKPKDTLMISRTPEVTCVVVDVSQEDPEVQFNWYVDGVEVHNAKTKPREEQFNSTYRVVSVLTVLHQDWLNGKEYKCKVSNKGLPSSIEKTISKAKGQPREPQVYTLPPCQEEMTKNQVSLWCLVKGFYPSDIAVEWESNGQPENNYKTTPPVLDSDGSFFLYSRLTVDKSRWQEGNVFSCSVMHEALHNHYTQKSLSLSL
chain: QVQLVQSGGGLVQAGGSLRLSCAASGRTFSSYAMAWFRQAPGKEREFVAAISWSGANIYVADSVKGRFTISRDNAKDTVYLQMNSLKPEDTAVYYCAVKLGFAPVEERQYDYWGQGTQVTVSSESKYGPPCPPCPAPEAAGGPSVFLFPPKPKDTLMISRTPEVTCVVVDVSQEDPEVQFNWYVDGVEVHNAKTKPREEQFNSTYRVVSVLTVLHQDWLNGKEYKCKVSNKGLPSSIEKTISKAKGQPREPQVCTLPPSQEEMTKNQVSLSCAVKGFYPSDIAVEWESNGQPENNYKTTPPVLDSDGSFFLVSRLTVDKSRWQEGNVFSCSVMHEALHNRFTQKSLSLSL
light: QAVVTQESALTTSPGETVTLTCRSSTGAVTTSNYANWVQEKPDHLFTGLIGGTNKRAPGVPARFSGSLIGDKAALTITGAQTEDEAIYFCALWYSNLWVFGGGTKVEIKRTVAAPSVFIFPPSDEQLKSGTASVVCLLNNFYPREAKVQWKVDNALQSGNSQESVTEQDSKDSTYSLSSTLTLSKADYEKHKVYACEVTHQGLSSPVTKSFNRGEC
[1]
  EC50 of tumor cell killing, MCF-7 cells with human PBMC (E:T 10:1, 3 days, CCK8): 8.29 nM
  EC50 of tumor cell killing, MDA-MB-453 cells with human PBMC (E:T 10:1, 3 days, CCK8): 4.05 nM
  EC50 of tumor cell killing, N87 cells with human PBMC (E:T 10:1, 3 days, CCK8): 1.32 nM
  EC50 of tumor cell killing, NCI-H157 cells with human PBMC (E:T 10:1, 3 days, CCK8): 36.2 nM
  EC50 of tumor cell killing, NCI-H441 cells with human PBMC (E:T 10:1, 3 days, CCK8): 0.152 nM
[2]
  Absorbance value (450 nm, polyspecificity ELISA): 1.45
[3]
  Kd: 13.1 nM
  koff: 0.00349 s⁻¹
  kon: 266000 M⁻¹ s⁻¹
Insulin (abs42019847)
  Absorbance value (450 nm, polyspecificity ELISA): 1.52
[4]
  BLI-Response (self-interaction signal): 0.056 nm
[5]
  EC50 of tumor cell killing, MDA-MB-468 cells with human PBMC (E:T 10:1, 3 days, CCK8): 1.79 nM
  EC50 of tumor cell killing, NCI-H1573 cells with human PBMC (E:T 10:1, 3 days, CCK8): 0.0405 nM
  EC50 of tumor cell killing, NCI-H1650 cells with human PBMC (E:T 10:1, 3 days, CCK8): 1.59 nM
  EC50 of tumor cell killing, NCI-H2228 cells with human PBMC (E:T 10:1, 3 days, CCK8): 10.2 nM
  EC50 of tumor cell killing, SK-OV-3 cells with human PBMC (E:T 10:1, 3 days, CCK8): 0.0198 nM
